Measured values reported in patent US11220526B2, “Neuropeptide S receptor (NPSR) agonists” (Research Triangle Institute, priority 2016, dated 2022).
Square brackets hold non-standard residues; d marks the D form. Peptide text beside a SMILES is read from it. * marks the point of attachment. Phe(4-Cl) = N[C@@H](Cc1ccc(Cl)cc1)C(=O)O; Lys(Me2) = CN(C)CCCC[C@H](N)C(=O)O; Bz = O=C(c1ccccc1)*

Columns and labels:
C57BL/6 mice = experiment: Locomotor activity (horizontal, vertical, stereotypic) after i.c.v. injection; assay type: in vivo
Protocol: Male C57BL/6 mice (National Cancer Institute, Bethesda, Md., or Charles River Laboratories, Wilmington, Mass.), age 8-12 weeks, were group-housed (4 animals per cage) under controlled conditions (temperature 21 f 2° C.; relative humidity 50-60%; 12-hour light-dark cycle, lights on 6:00 AM) with free access to food and water. For intracerebroventricular (i.c.v.) drug injections, mice were briefly anesthetized with isofluorane. NPS was dissolved in phosphate-buffered saline (PBS, pH 7.4) containing 0.1% bovine serum albumin and injected i.c.v. (total volume: 2 μl) as described before (Xu et al., 2004). NPSR antagonist compounds were dissolved in PBS containing 10% Cremophor EL (Sigma) and 100 μl were injected intraperitoneally (i.p.).
Locomotion of mice was monitored in an automated activity system equipped with infrared sensors for both horizontal and vertical activity measurements (Versamax, Accuscan Inc., Columbus, Ohio). Male C57BL/6 mice were allowed to habituate to the recording chamber for 1 h. Vehicle or NPSR antagonist compound (in PBS, 10% cremophor EL) were injected i.p. 10 minutes before central administration of either NPS (1 nmole in 2 μl PBS, 0.1% BSA) or vehicle (PBS, 0.1% BSA). […] Horizontal activity represents infrared beam breaks in the X and Y dimension, while vertical activity was recorded by infrared sensors located 8 cm above the chamber floor (Z dimension). […]

[1] = NPS administration; cited from earlier work
NPSR-C-Alt = target: T1, NPSR-C-Alt (Homo sapiens, UniProt Q6W5P4); conditions: functional assay; cited from earlier work
T1 sequence (Q6W5P4 1-377 isoform Q6W5P4-4): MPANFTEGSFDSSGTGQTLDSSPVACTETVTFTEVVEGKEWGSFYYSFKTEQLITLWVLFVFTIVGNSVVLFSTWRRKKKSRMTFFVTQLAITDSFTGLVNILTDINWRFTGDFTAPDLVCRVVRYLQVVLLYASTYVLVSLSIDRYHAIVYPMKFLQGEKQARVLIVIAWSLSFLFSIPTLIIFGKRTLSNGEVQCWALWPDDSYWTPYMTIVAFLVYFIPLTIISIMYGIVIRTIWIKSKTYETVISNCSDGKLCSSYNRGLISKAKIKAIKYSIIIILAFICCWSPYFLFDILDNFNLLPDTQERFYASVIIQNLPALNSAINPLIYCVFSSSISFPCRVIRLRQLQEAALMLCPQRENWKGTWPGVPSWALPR

NPSR = target: T2, NPSR (Homo sapiens, UniProt Q6W5P4); conditions: Bernier et al. 2006; cited from earlier work
T2 sequence (Q6W5P4 1-371): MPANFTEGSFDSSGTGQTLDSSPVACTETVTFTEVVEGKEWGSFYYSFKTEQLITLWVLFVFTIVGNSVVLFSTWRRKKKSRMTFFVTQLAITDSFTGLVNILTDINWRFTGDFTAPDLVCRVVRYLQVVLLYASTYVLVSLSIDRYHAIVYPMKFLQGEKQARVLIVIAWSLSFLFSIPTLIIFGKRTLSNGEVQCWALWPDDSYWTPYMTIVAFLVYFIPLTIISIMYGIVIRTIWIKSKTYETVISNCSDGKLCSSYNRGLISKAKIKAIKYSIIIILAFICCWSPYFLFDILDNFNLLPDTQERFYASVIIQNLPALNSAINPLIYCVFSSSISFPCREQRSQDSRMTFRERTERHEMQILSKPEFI

Compound: CN(C)CCCC[C@H](NC(=O)[C@H](Cc1ccc(Cl)cc1)NC(=O)c1ccccc1)C(=O)N[C@@H](CC(N)=O)C(N)=O [Example R06039-398] (Bz-[Phe(4-Cl)]-[Lys(Me2)]-Asn-NH2)
- cumulative activities (horizontal, vertical, stereotypic) measured (C57BL/6 mice; icv administration, male C57BL/6 mice, 90 minutes recording): increasing with dose

Compound: SFRNGVGTGMKKTSFQRAKS [hNPS, 20 residue peptide, endogenous ligand of the neuropeptide S receptor]
- performance in novel recognitions assays [1]: dose-dependently improved performance
- potency at NPSR-C-Alt versus the 107I variant (NPSR-C-Alt): 30 fold lower

Compound: peptide 1-6: NPS with the C-terminal 14 residues removed (SFRNGV; Neuropeptide S; UniProt P0C0P6 70-75, looked up, fragment)
- effect of truncation on NPSR activation (NPSR): limited effect on the potency

Compound: peptide 4-20: NPS with the first three NH2-terminal residues removed (NGVGTGMKKTSFQRAKS; Neuropeptide S; UniProt P0C0P6 73-89, looked up, fragment)
- effect of truncation on NPSR activation (NPSR): largely inactive

Compound: O=C(NCCN1CCCCC1)N1CCN2C(=O)OC(c3ccccc3)(c3ccccc3)C2C1 (centres unmarked) [RTI-11817-163]
- effect on R06039-398 mediated increases in horizontal and vertical activity (C57BL/6 mice; antagonist added to icv R06039-398, mice): reverses

Compound: peptide 3-20: NPS with the first two NH2-terminal residues removed (RNGVGTGMKKTSFQRAKS; Neuropeptide S; UniProt P0C0P6 72-89, looked up, fragment)
- effect of truncation on NPSR activation (NPSR): largely inactive

Compound: peptide 2-20: NPS with Ser-1 removed (FRNGVGTGMKKTSFQRAKS; Neuropeptide S; UniProt P0C0P6 71-89, looked up, fragment)
- effect of truncation on NPSR activation (NPSR): detrimental to function
